Assay [1] addresses T1, biotinylated extracellular domains of human CD123 with C-terminal Fc tag and Avi tag (bio.hCD123-Fc(kih)-Avi) (human, UniProt P26951 19-303, biotinylated with BirA-GST (Avi tag)).
T1 construct: Bought from Evitria; the second Fc chain and the number of CD123 arms are not described; also called biotinylated hCD123; recombinant human CD123 target; not shown: Avi tag
T1 sequence: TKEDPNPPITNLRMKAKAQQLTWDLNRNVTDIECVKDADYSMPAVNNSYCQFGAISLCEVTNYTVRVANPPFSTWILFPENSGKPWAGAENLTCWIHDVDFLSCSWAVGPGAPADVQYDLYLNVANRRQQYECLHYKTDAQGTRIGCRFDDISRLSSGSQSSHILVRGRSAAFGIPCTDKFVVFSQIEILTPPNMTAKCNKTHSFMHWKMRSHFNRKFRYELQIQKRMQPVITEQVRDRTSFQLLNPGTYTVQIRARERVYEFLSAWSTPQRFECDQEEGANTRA
The assay is described as follows: SPR (ProteOn XPR36), bio.hCD123 immobilised on NLC chip, DARPin in TCE format injected at 50 nM, single trace. As to the method: SPR measurements were performed using a ProteOn XPR36 instrument (BioRad). The running buffer was PBS pH 7.4 containing 0.005% Tween 20® (PBST). The bio.hCD123 target was immobilized on a NLC chips (BioRad) to a level of 600 RU. The interactions of the 96well purified CD123-specific ankyrin repeat proteins in TCE format to bio. hCD123 were measured by injecting the DARPin® molecules at 50 nM with an association of 120 s and dissociation of 1200 s using a constant flow of 100 μl/min. Some DARPin proteins were reinjected using a dissociation of 600 s. The target was regenerated between the individual measurements using 10 mM Glycine pH2.5. The signals were double referenced against the running buffer (PBST) treated control lane of L1 and A6.
Dissociation constants (KD) were calculated from the estimated on- and off-rates using standard procedures known to the person skilled in the art. KD values were determined by single trace SPR. The values in Table 2a are averages of multiple replicates.

The target of assay [2] is T2, CD123 expressed on the surface of Molm-13 (Molm-13 N1) tumor cells (human, UniProt P26951 19-378).
T2 construct: whole, on cells; also called CD123-expressing tumor cells; CD123 expressed on tumor cells
The experiment in a line: flow cytometry on CD123-expressing Molm-13 N1 tumor cells, monospecific format. As to the method: Binding of binding proteins of the invention to CD123 expressed on the surface of tumor cells was analyzed by fluorescence activated cell sorting (FACS) flow cytometry. For this purpose, CD123 expressing tumor cells (Molm-13 N1) were seeded at 100′000 cells per well in a 96 well plate. DARPin protein #2, DARPin protein #3, DARPin protein #9, DARPin protein #12, DARPin protein #13 and DARPin protein #14, in monospecific format, were titrated down in 1:5 dilution ratio starting at 2000 nM. Tumor cells were resuspended with diluted DARPin proteins and incubated for 60 minutes at 4° C. The assay was performed in PBS including 2% fetal bovine serum without human serum albumin (HSA). After washing twice with Phosphate Buffer saline (PBS), DARPin® protein specific tumor cell binding was detected by adding unlabeled primary anti-rabbit DARPin® antibody (anti-rabbit 1-1-1 antibody, CePower) at 2 ug/ml. An incubation step of at least 30 minutes at 4° C. followed. Afterwards, cells were washed with PBS and a secondary goat anti-rabbit antibody labelled with Alexa Fluor 488 antibody (ThermoFisher) at 2 ug/ml was added. The same incubation conditions applied. Finally, the cells were washed twice and resuspended in Cytofix fixation buffer (BD Biosciences) for 15 min at room temperature (RT).
A general note: In flow cytometry, cells or beads pass a laser one at a time.

Assay [3] deals with T1, biotinylated extracellular domains of …. The assay is described as follows: SPR (ProteOn), bio.hCD123 on neutravidin-coated GLC chip, DARPin 100-1.2 nM, 1:1 Langmuir fit. As to the method:
Moreover, the binding affinities of three additional purified ankyrin repeat proteins on recombinant human CD123 target were measured and analyzed with a procedure as described above for DARPin proteins #1, #3 to #9. Briefly, neutravidin was precoated on a GLC chip (BioRad) to a level of 6000 RU. In a second step, bio.hCD123 was immobilized to a level of 1030 RU. A serial dilution of 100, 33, 11, 3.7 and 1.2 nM was used to measure the binding of DARPin protein #12, DARPin protein #13 and DARPin protein #14 to bio.hCD123. For all described measurements, an association of 120 s and dissociation of 1200 s using a constant flow of 100 μl/min were applied. The CD123 target was regenerated with two different conditions (10 mM Glycine pH2.0 and 4M MgCl2) each applied for 30s. The signals were double referenced against interspot and the running buffer (PBST-PBS pH 7.4 containing 0.005% Tween 20®) treated control lane A6. The 1:1 Langmuir model was used for the fitting.
KD values were calculated from the estimated on- and off-rates using standard procedures known to the person skilled in the art. The values in Table 2b are averages of multiple replicates.

B1: DARPin® protein #3 (in TCE format) (designed binder, not shown: small tags and cut ends)
chain: MRGSHHHHHHGSDLGKKLLQAARAGQLDEVRELLKAGADVNAKDQYGRTPLHLAAIKGHLEIVEVLLKAGADVNAKDSLGYTPLHLAAVEGPLEIVEVLLKAGADVNAKDAYGQTPLHIAAAWGHLEIVEVLLKAVADVNAQDKSGKTPADLAARAGHQDIAEVLQKAA
By Kd is commonly meant the equilibrium constant for the complex coming apart. In assay [1], B1 gave a Kd of 0.52 nM.

B2: DARPin® protein #7 (in TCE format) (designed binder, not shown: small tags and cut ends)
chain: MRGSHHHHHHGSDLGKKLLQAARAGQLDEVRELLKAGADVNAKDEYGLTPLHLAAEFGHLEIVEVLLKAGADVNAKDANGHTPLHLAAAYDHLEIVEVLLKAGADVNAKDTSGKTPLHLAAQYGHLEIVEVLLKAGADVNAQDKSGKTPADLAARAGHQDIAEVLQKAA
For B2, the Kd in assay [1] was 0.93 nM.

B3: DARPin® protein #13 (designed binder)
chain: DLGKKLLEAALEGQLDEVRELLKAGADVNAKDQEGYTPLHLAAALGHLEIVEVLLKAGADVNAKDQIGRTPLHLAAYKGHLEIVEVLLKAGADVNAQDIIGQTPADLAAQRGHQDIAEVLQKAA
By EC50 is commonly meant the concentration at which the effect is half-maximal. In assay [2], B3 had an EC50 of 0.41 nM. This molecule came in with a Kd in assay [3] of 0.02 nM.

B4: DARPin® protein #14 (designed binder)
chain: DLGKKLLQAALEGQLDEVRELLKAGADVNAKDIEGYTPLHLAAALGHLEIVEVLLKAGADVNAKDQIGRTPLHLAAYKGHLEIVEVLLKAGADVNAQDIIGQTPADLAAQRGHQDIAEVLQKAA
In turn, B4 returned an EC50 in assay [2] of 1.3 nM. The molecule further displayed a Kd in assay [3] of 0.02 nM.

B5: DARPin® protein #2 (designed binder)
chain: DLGKKLLEAALEGQLDEVRELLKAGADVNAKDQEGYTPLHLAAALGHLEIVEVLLKAGADVNAKDSIGRTPLHLAAYKGHLEIVEVLLKAGADVNAQDLLGETPADLAAEQGHQDIAEVLQKAA
Molecule B5 came in with an EC50 in assay [2] of 29 nM.

B6: DARPin® protein #3 (monospecific format) (designed binder)
chain: DLGKKLLQAARAGQLDEVRELLKAGADVNAKDQYGRTPLHLAAIKGHLEIVEVLLKAGADVNAKDSLGYTPLHLAAVEGPLEIVEVLLKAGADVNAKDAYGQTPLHIAAAWGHLEIVEVLLKAVADVNAQDKSGKTPADLAARAGHQDIAEVLQKAA
Turning to B6, the EC50 in assay [2] turned out to be 77 nM.

B7: DARPin® protein #4 (in TCE format) (designed binder, not shown: small tags and cut ends)
chain: MRGSHHHHHHGSDLGKKLLQAARAGQLDEVRELLKAGADVNAKDEYGATPLHLAAYSGHLEIVEVLLKAGADVNAKDEWGRTPLHVAALSGHLEIVEVLLKAGADVNAKDHQGRTPLHLAALWGHLEIVEVLLKAVADVNAQDKSGKTPADLAARAGHQDIAEVLQKAA
Turning to B7, binding in assay [1] was put at a Kd of 45 nM.

B8: DARPin® protein #9 (in TCE format) (designed binder, not shown: small tags and cut ends)
chain: MRGSHHHHHHGSDLGWKLLDAAEIGQDDEVRILLAAGADVNAKDKQGITPLHIAAAHGHLEIVEVLLKAGADVNAKDEIGRTPLHLAAFKGHLEIVEVLLKAGADVNAQDIIGETPADLAAVRGHEDIAEVLQKAA
Molecule B8 showed a Kd in assay [1] of 2.1 nM.

B9: DARPin® protein #5 (in TCE format) (designed binder, not shown: small tags and cut ends)
chain: MRGSHHHHHHGSDLGKKLLKAALLGQDDEVRELLKAGADVNAKDRFGYTPLHLAAWTGHLEIVEVLLKAGADVNAKDAYGWTPLHIAAHSGHLEIVEVLLKAGADVNAQDLEGETPADLAAAQGHEDIAEVLQKAA
With B9, in assay [1], binding was characterised by a dissociation constant (Kd) of 8.5 nM.

B10: DARPin® protein #8 (in TCE format) (designed binder, not shown: small tags and cut ends)
chain: MRGSHHHHHHGSDLGKKLLNAAHIGQDDEVRILLAAGADVNAKDIVGKTPLHIAAWLGHLEIVEVLLKAGADVNAKDDHGWTPLHIAAHVGHLEIVEVLLKAGADVNAQDNAGNTPADLVAFQGHEDIAEVLQKAA
In the case of B10, the affinity in assay [1], expressed as Kd, was 1 nM.

B11: DARPin® protein #9 (monospecific format) (designed binder)
chain: DLGWKLLDAAEIGQDDEVRILLAAGADVNAKDKQGITPLHIAAAHGHLEIVEVLLKAGADVNAKDEIGRTPLHLAAFKGHLEIVEVLLKAGADVNAQDIIGETPADLAAVRGHEDIAEVLQKAA
As for B11, the midpoint of the response in assay [2], the EC50, lay at 7.9 nM.

B12: DARPin® protein #12 (designed binder)
chain: DLGWKLLDAAEIGQLDEVRILLKAGADVNAKDKQGITPLHIAAAHGHLEIVEVLLKAGADVNAKDEIGRTPLHLAAFKGHLEIVEVLLKAGADVNAQDIIGETPADLAAVRGHQDIAEVLQKAA
Consider B12, for which the EC50 in assay [2] turned out to be 3.2 nM. Moreover, the Kd in assay [3] stood at 0.49 nM.

B13: DARPin® protein #1 (in TCE format) (designed binder, not shown: small tags and cut ends)
chain: MRGSHHHHHHGSDLGKKLLEAALEGQDDEVRELLKAGADVNAKDQEGYTPLHLAAALGHLEIVEVLLKAGADVNAKDSIGRTPLHLAAYKGHLEIVEVLLKAGADVNAQDLLGETPADLAAEQGHEDIAEVLQKAA
On to B13, for which the Kd in assay [1] is 12 nM.

B14: DARPin® protein #6 (in TCE format) (designed binder, not shown: small tags and cut ends)
chain: MRGSHHHHHHGSDLGEKLLEAALEGQDDEVRELLKAGADVNAKDQEGYTPLHLAAALGHLEIVEVLLKAGADVNAKDSIDRTPLHLAAYKGHLEIVEVLLKAGADVNAQDAAGQTPADLAAALGHEDIAEVLQKAA
In the case of B14, the Kd in assay [1] is 4.5 nM.

These data come from patent US20240150475A1 (Molecular Partners, published 2024).
